Experimental data taken from US20220363757A1 (SYMPHOGEN A S, published 2022).

T1: human LAG-3 domain 1-2 Fc fusion, chimeric construct #22 (mutated region AA 140-142) (human, UniProt P18627 23-266)
T1 construct: not shown: human IgG1 Fc, AA P101-K330
T1 chain: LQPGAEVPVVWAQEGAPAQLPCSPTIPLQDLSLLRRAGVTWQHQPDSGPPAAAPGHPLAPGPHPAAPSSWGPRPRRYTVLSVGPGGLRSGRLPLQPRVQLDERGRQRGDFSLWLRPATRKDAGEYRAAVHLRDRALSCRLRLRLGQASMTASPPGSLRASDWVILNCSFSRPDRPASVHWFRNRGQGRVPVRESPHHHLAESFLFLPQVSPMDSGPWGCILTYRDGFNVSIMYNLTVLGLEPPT

T2: human LAG-3 domain 1-2 Fc fusion, chimeric construct #19 (mutated region AA 118-127) (human, UniProt P18627 23-266)
T2 construct: not shown: human IgG1 Fc, AA P101-K330
T2 chain: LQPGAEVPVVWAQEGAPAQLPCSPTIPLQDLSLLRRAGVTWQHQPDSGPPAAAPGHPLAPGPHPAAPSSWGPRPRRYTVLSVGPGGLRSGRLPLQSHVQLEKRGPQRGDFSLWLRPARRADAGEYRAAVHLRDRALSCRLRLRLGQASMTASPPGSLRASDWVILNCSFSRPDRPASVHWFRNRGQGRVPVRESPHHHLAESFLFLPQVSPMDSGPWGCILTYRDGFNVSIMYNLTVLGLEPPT

T3: human LAG-3 domain 1-2 Fc fusion, chimeric construct #2 (mutated region AA 29-30) (human, UniProt P18627 23-266)
T3 construct: not shown: human IgG1 Fc, AA P101-K330
T3 chain: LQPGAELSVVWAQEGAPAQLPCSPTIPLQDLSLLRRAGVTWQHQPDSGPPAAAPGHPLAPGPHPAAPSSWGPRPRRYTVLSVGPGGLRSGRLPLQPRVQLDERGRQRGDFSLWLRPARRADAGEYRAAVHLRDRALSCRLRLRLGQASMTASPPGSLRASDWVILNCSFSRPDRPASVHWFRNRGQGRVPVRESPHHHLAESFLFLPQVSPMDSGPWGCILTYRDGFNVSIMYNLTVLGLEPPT

T4: human LAG-3 domain 1-2 Fc fusion, chimeric construct #6 (mutated region AA 48-55) (human, UniProt P18627 23-266)
T4 construct: not shown: human IgG1 Fc, AA P101-K330
T4 chain: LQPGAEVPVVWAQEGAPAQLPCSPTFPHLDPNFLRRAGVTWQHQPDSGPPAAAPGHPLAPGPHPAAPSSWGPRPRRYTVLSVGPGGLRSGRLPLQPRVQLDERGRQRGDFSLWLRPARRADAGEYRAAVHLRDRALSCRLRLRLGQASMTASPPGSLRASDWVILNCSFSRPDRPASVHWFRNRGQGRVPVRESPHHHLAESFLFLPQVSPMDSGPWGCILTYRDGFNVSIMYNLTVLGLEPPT

T5: human LAG-3 domain 1-2 Fc fusion, chimeric construct #10 (mutated region AA 70-77) (human, UniProt P18627 23-266)
T5 construct: 'Q71Q' copied as printed; construct #9 prints P71Q for the same position
T5 chain: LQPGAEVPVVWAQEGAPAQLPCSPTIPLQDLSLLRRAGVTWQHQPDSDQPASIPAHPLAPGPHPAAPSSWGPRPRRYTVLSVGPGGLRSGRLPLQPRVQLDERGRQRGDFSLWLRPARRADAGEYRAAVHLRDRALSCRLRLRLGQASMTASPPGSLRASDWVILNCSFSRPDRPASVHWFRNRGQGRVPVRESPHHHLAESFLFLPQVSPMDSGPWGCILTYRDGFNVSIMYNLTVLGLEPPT

T6: human LAG-3 domain 1-2 Fc fusion, chimeric construct #9 (mutated region AA 66-71) (human, UniProt P18627 23-266)
T6 construct: not shown: human IgG1 Fc, AA P101-K330
T6 chain: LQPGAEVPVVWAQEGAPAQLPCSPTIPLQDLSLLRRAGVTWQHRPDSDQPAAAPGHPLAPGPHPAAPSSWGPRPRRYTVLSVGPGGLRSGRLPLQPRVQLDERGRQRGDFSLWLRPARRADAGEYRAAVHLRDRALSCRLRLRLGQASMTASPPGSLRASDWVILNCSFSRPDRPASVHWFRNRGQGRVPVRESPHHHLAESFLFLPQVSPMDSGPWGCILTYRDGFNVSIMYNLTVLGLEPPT

T7: human LAG-3 domain 1-2 Fc fusion, chimeric construct #7 (mutated region AA 53-60) (human, UniProt P18627 23-266)
T7 construct: not shown: human IgG1 Fc, AA P101-K330
T7 chain: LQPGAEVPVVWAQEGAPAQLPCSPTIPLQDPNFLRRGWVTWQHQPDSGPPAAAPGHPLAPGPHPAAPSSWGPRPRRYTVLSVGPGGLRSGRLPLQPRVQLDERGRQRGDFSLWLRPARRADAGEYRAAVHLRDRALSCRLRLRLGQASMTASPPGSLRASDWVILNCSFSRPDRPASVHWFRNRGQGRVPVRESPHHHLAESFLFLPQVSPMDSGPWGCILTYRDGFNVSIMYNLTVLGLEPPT

T8: human LAG-3 domain 1-2 Fc fusion, chimeric construct #3 (mutated region AA 40-41) (human, UniProt P18627 23-266)
T8 construct: not shown: human IgG1 Fc, AA P101-K330
T8 chain: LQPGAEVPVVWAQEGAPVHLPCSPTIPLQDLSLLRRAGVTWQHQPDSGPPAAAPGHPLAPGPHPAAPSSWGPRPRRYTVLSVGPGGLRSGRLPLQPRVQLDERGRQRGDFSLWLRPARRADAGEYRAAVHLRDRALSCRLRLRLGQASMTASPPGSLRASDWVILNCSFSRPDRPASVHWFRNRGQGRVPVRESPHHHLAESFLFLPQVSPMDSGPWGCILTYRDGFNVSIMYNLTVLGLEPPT

B1: Fab fragment of antibody 15532 (Fab, V domains shown, not shown: a dimerising Fc or GST)
VH: QVQLQQWGAGLLRPSETLSLTCAVYGESFSGYYWNWIRQPPGKGLEWIGEINHSGSTNYNPSLKSRVTISVDTSKTQFSLKLSSVTAADTAVYYCARGWDLLDWNDYWNEYWGQGTLVTVSS
VL: EIVLTQSPATLSLSPGERATLSCRASQSVSSYLAWYQQKPGQAPRLLIYDASNRATGIPARFSGSGSGTDFTLTISSLEPEDFAVYYCQQRSNWPLTFGGGTKVEIKR
notes: monomeric Fab made by GingisKHAN digestion of the IgG1
B2: Fab fragment of antibody 15011 (Fab, V domains shown, not shown: a dimerising Fc or GST)
VH: EVQLLESGGGLVQPGGSLRLSCAASGFDFRSYAMMWVRQAPGKGLEWVGGINGEVGGSNTYYAPAVKGRATISRDNSKNTLYLQMNSLRAEDTAVYYCVKGAGACGICNDDIDAWGQGTLVTVSS
VL: SYELTQDPAVSVALGQTVRITCSGAGSYAGSYYYGWHQQKPGQAPVTVIYDNDKRPSNIPDRFSGSSSGNTASLTITGAQAEDEADYYCGSTNDNDDGGLFGSGTKVTVLG
notes: as for B1
B3: Fab fragment of antibody 15431 (Fab, V domains shown, not shown: a dimerising Fc or GST)
VH: QVQLQQSGPGLVKPSQTLSLTCAISGDSVSSNSAAWNWIRQSPSRGLEWLGRTYYRSKWYNDYAVSVKSRITINPDTSKNQFSLQLNSVTPEDTAVYYCARDDDWNDFDYWGQGTLVTVSS
VL: EIVLTQSPATLSLSPGERATLSCRASQSVSSYLAWYQQKPGQAPRLLIYDASNRATGIPARFSGSGSGTDFTLTISSLEPEDFAVYYCQQRSNWPLTFGGGTKVEIKR
notes: as for B1
B4: Fab fragment of antibody 15572 (Fab, V domains shown, not shown: a dimerising Fc or GST)
VH: QLQLQESGPGLVKPSETLSLTCTVSGDSISSSSYYWGWIRQPPGKGLEWIGSIFYSGNTYYNPSLKSRVTISVDTSKNQFSLKLSSVTAADTAVYYCAREDDFLTDYYGAFDIWGQGTMVTVSS
VL: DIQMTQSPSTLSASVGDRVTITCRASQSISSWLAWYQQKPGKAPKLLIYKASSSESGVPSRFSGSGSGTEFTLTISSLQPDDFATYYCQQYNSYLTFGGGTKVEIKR
notes: as for B1

Legend:
Assay in all cases: SPR, Fab over captured mutant LAG-3-Fc;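 also: LAG-3 fusion proteins captured on an anti-human IgG Fc sensor chip and read on an IBIS MX96 biosensor, Fab association and dissociation each 15 min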
[1] = target: T1, human LAG-3 domain 1-2 Fc fusion, …
[2] = target: T2, human LAG-3 domain 1-2 Fc fusion, …
[3] = target: T3, human LAG-3 domain 1-2 Fc fusion, …
[4] = target: T4, human LAG-3 domain 1-2 Fc fusion, …
[5] = target: T5, human LAG-3 domain 1-2 Fc fusion, …
[6] = target: T6, human LAG-3 domain 1-2 Fc fusion, …
[7] = target: T7, human LAG-3 domain 1-2 Fc fusion, …
[8] = target: T8, human LAG-3 domain 1-2 Fc fusion, …

Row | Binder | KD mutant/KD wild type [1] [fold] | KD mutant/KD wild type [2] [fold] | KD mutant/KD wild type [3] [fold] | KD mutant/KD wild type [4] [fold] | KD mutant/KD wild type [5] [fold] | KD mutant/KD wild type [6] [fold] | KD mutant/KD wild type [7] [fold] | KD mutant/KD wild type [8] [fold] | binding result [3] | binding result [4] | binding result [7] | binding result [8] | binding result [2]
1 | B1 | 1.3 | 0.5 | 3.1 | 3.4 | 1.1 | 3.9 | 3.4 | 2.2 |  |  |  |  | 
2 | B2 | 0.5 | 0.6 | 0.5 | 0.5 | 1.8 | 0.7 | 0.5 | 0.5 |  |  |  |  | 
3 | B3 | 0.6 | 0.5 |  |  | 1.1 | 0.4 |  |  | no binding (tested: 300 nM) | no binding (tested: 300 nM) | no binding (tested: 300 nM) | no binding (tested: 300 nM) | 
4 | B4 | 0.8 |  |  |  | 0.7 | 1.1 |  |  | no binding (tested: 300 nM) | no binding (tested: 300 nM) | no binding (tested: 300 nM) | no binding (tested: 300 nM) | no binding (tested: 300 nM)
